Reference: patent US20150344570A1 (published 2015)

T1: FcγRIIa H (human, UniProt P12318 34-217)
T1 construct: extracellular domain; also called FcgRIIa H; FcγRIIa type H
T1 sequence (looked up): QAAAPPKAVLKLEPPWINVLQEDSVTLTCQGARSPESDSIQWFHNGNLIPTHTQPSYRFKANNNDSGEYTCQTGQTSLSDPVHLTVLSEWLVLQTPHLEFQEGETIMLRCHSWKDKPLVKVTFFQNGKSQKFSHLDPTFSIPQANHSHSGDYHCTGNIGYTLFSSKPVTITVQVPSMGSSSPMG

T2: FcγRIIb (human, UniProt P31994 43-217)
T2 construct: extracellular domain; also called FcgRIIb; 2b
T2 sequence (looked up): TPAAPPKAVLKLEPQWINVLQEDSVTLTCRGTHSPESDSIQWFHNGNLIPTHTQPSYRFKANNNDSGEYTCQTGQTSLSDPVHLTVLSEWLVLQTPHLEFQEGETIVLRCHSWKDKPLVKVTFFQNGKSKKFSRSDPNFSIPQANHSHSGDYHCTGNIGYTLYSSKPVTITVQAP

B1: GpH7-A5/GpH7-B3 variant H268_05P/GpL16-k0 (antibody, human IgG1, kappa)
heavy 1: not shown
heavy 2: not shown
light: DIVMTQSPLSLPVTPGEPASISCQASESLVHSNRNTYLHWYLQKPGQSPQLLIYKVSNRFSGVPDRFSGSGSGTDFTLKISRVEAEDVGVYYCSQNTHVPPTFGQGTKVEIERTVAAPSVFIFPPSDEQLKSGTASVVCLLNNFYPREAKVQWKVDNALQSGNSQESVTEQDSKDSTYSLSSTLTLSKADYEKHKVYACEVTHQGLSSPVTKSFNRGEC
notes: Heterodimerized antibody, alteration in one H chain only; also called He Ab H268P
B2: GpH7-A5/GpH7-B3 variant K326_05P/GpL16-k0 (antibody, human IgG1, kappa)
heavy 1: not shown
heavy 2: not shown
light: B1 light
notes: Heterodimerized antibody, alteration in one H chain only; also called He Ab K326P
B3: GpH7-A5/GpH7-B3 variant K326_08L/GpL16-k0 (antibody, human IgG1, kappa)
heavy 1: not shown
heavy 2: not shown
light: B1 light
notes: Heterodimerized antibody, alteration in one H chain only; also called He Ab K326L
B4: GpH7-A5/GpH7-B3 variant H268_03V/GpL16-k0 (antibody, human IgG1, kappa)
heavy 1: not shown
heavy 2: not shown
light: B1 light
notes: Heterodimerized antibody, alteration in one H chain only; also called He Ab H268V
B5: GpH7-A5/GpH7-B3 variant P238_20W/GpL16-k0 (antibody, human IgG1, kappa)
heavy 1: not shown
heavy 2: not shown
light: B1 light
notes: Heterodimerized antibody, alteration in one H chain only; also called He Ab P238W
B6: GpH7-A5/GpH7-B3 variant P238_15Y/GpL16-k0 (antibody, human IgG1, kappa)
heavy 1: not shown
heavy 2: not shown
light: B1 light
notes: Heterodimerized antibody, alteration in one H chain only; also called He Ab P238Y
B7: GpH7-A5/GpH7-B3 variant H268_20W/GpL16-k0 (antibody, human IgG1, kappa)
heavy 1: not shown
heavy 2: not shown
light: B1 light
notes: Heterodimerized antibody, alteration in one H chain only; also called He Ab H268W
B8: GpH7-A5/GpH7-B3 variant P271_08L/GpL16-k0 (antibody, human IgG1, kappa)
heavy 1: not shown
heavy 2: not shown
light: B1 light
notes: Heterodimerized antibody, alteration in one H chain only; also called He Ab P271L
B9: GpH7-A5/GpH7-B3 variant K326_04F/GpL16-k0 (antibody, human IgG1, kappa)
heavy 1: not shown
heavy 2: not shown
light: B1 light
notes: Heterodimerized antibody, alteration in one H chain only; also called He Ab K326F
B10: GpH7-A5/GpH7-B3 variant P238_19Q/GpL16-k0 (antibody, human IgG1, kappa)
heavy 1: not shown
heavy 2: not shown
light: B1 light
notes: Heterodimerized antibody, alteration in one H chain only; also called He Ab P238Q
B11: GpH7-A5/GpH7-B3 variant K326_03V/GpL16-k0 (antibody, human IgG1, kappa)
heavy 1: not shown
heavy 2: not shown
light: B1 light
notes: Heterodimerized antibody, alteration in one H chain only; also called He Ab K326V
B12: GpH7-A5/GpH7-B3 variant P238_09D/GpL16-k0 (antibody, human IgG1, kappa)
heavy 1: not shown
heavy 2: not shown
light: B1 light
notes: Heterodimerized antibody, alteration in one H chain only; also called He Ab P238D
B13: GpH7-A5/GpH7-B3 variant P238_10E/GpL16-k0 (antibody, human IgG1, kappa)
heavy 1: not shown
heavy 2: not shown
light: B1 light
notes: Heterodimerized antibody, alteration in one H chain only; also called He Ab P238E
B14: GpH7-A5/GpH7-B3 variant H268_01G/GpL16-k0 (antibody, human IgG1, kappa)
heavy 1: not shown
heavy 2: not shown
light: B1 light
notes: Heterodimerized antibody, alteration in one H chain only; also called He Ab H268G
B15: GpH7-A5/GpH7-B3 variant P238_16H/GpL16-k0 (antibody, human IgG1, kappa)
heavy 1: not shown
heavy 2: not shown
light: B1 light
notes: Heterodimerized antibody, alteration in one H chain only; also called He Ab P238H
B16: GpH7-A5/GpH7-B3 variant P238_08L/GpL16-k0 (antibody, human IgG1, kappa)
heavy 1: not shown
heavy 2: not shown
light: B1 light
notes: Heterodimerized antibody, alteration in one H chain only; also called He Ab P238L
B17: GpH7-A5/GpH7-B3 variant G237_05P/GpL16-k0 (antibody, human IgG1, kappa)
heavy 1: not shown
heavy 2: not shown
light: B1 light
notes: Heterodimerized antibody, alteration in one H chain only; also called He Ab G237P
B18: GpH7-A5/GpH7-B3 variant S324_14T/GpL16-k0 (antibody, human IgG1, kappa)
heavy 1: not shown
heavy 2: not shown
light: B1 light
notes: heterodimerized IgG1, mutation in one H chain; also called He Ab
B19: GpH7-A5/GpH7-B3 variant S298_08L/GpL16-k0 (antibody, human IgG1, kappa)
heavy 1: not shown
heavy 2: not shown
light: B1 light
notes: as for B18
B20: GpH7-A5/GpH7-B3 variant S239_09D/GpL16-k0 (antibody, human IgG1, kappa)
heavy 1: not shown
heavy 2: not shown
light: B1 light
notes: as for B18
B21: GpH7-A5/GpH7-B3 variant S298_19Q/GpL16-k0 (antibody, human IgG1, kappa)
heavy 1: not shown
heavy 2: not shown
light: B1 light
notes: as for B18
B22: GpH7-A5/GpH7-B3 variant S324_19Q/GpL16-k0 (antibody, human IgG1, kappa)
heavy 1: not shown
heavy 2: not shown
light: B1 light
notes: as for B18
B23: GpH7-A5/GpH7-B3 variant S324_20W/GpL16-k0 (antibody, human IgG1, kappa)
heavy 1: not shown
heavy 2: not shown
light: B1 light
notes: as for B18
B24: GpH7-A5/GpH7-B3 variant S298_10E/GpL16-k0 (antibody, human IgG1, kappa)
heavy 1: not shown
heavy 2: not shown
light: B1 light
notes: as for B18
B25: GpH7-A5/GpH7-B3 variant S239_01G/GpL16-k0 (antibody, human IgG1, kappa)
heavy 1: not shown
heavy 2: not shown
light: B1 light
notes: as for B18
B26: GpH7-A5/GpH7-B3 variant S337_03V/GpL16-k0 (antibody, human IgG1, kappa)
heavy 1: not shown
heavy 2: not shown
light: B1 light
notes: as for B18
B27: GpH7-A5/GpH7-B3 variant Q295_07I/GpL16-k0 (antibody, human IgG1, kappa)
heavy 1: not shown
heavy 2: not shown
light: B1 light
notes: as for B18
B28: GpH7-A5/GpH7-B3 variant S267_02A/GpL16-k0 (antibody, human IgG1, kappa)
heavy 1: not shown
heavy 2: not shown
light: B1 light
notes: as for B18
B29: GpH7-A5/GpH7-B3 variant S298_18N/GpL16-k0 (antibody, human IgG1, kappa)
heavy 1: not shown
heavy 2: not shown
light: B1 light
notes: as for B18
B30: GpH7-A5/GpH7-B3 variant S267_03V/GpL16-k0 (antibody, human IgG1, kappa)
heavy 1: not shown
heavy 2: not shown
light: B1 light
notes: as for B18
B31: GpH7-A5/GpH7-B3 variant Q295_14T/GpL16-k0 (antibody, human IgG1, kappa)
heavy 1: not shown
heavy 2: not shown
light: B1 light
notes: as for B18
B32: GpH7-A5/GpH7-B3 variant S267_01G/GpL16-k0 (antibody, human IgG1, kappa)
heavy 1: not shown
heavy 2: not shown
light: B1 light
notes: as for B18
B33: GpH7-A5/GpH7-B3 variant S298_16H/GpL16-k0 (antibody, human IgG1, kappa)
heavy 1: not shown
heavy 2: not shown
light: B1 light
notes: as for B18
B34: GpH7-A5/GpH7-B3 variant S267_09D/GpL16-k0 (antibody, human IgG1, kappa)
heavy 1: not shown
heavy 2: not shown
light: B1 light
notes: as for B18
B35: GpH7-A5/GpH7-B3 variant S337_02A/GpL16-k0 (antibody, human IgG1, kappa)
heavy 1: not shown
heavy 2: not shown
light: B1 light
notes: as for B18
B36: GpH7-A5/GpH7-B3 variant S298_14T/GpL16-k0 (antibody, human IgG1, kappa)
heavy 1: not shown
heavy 2: not shown
light: B1 light
notes: as for B18
B37: GpH7-A5/GpH7-B3 variant S324_02A/GpL16-k0 (antibody, human IgG1, kappa)
heavy 1: not shown
heavy 2: not shown
light: B1 light
notes: as for B18
B38: GpH7-A5/GpH7-B3 variant S337_01G/GpL16-k0 (antibody, human IgG1, kappa)
heavy 1: not shown
heavy 2: not shown
light: B1 light
notes: as for B18
B39: GpH7-A5/GpH7-B3 variant S298_15Y/GpL16-k0 (antibody, human IgG1, kappa)
heavy 1: not shown
heavy 2: not shown
light: B1 light
notes: as for B18
B40: GpH7-A5/GpH7-B3 variant Q295_18N/GpL16-k0 (antibody, human IgG1, kappa)
heavy 1: not shown
heavy 2: not shown
light: B1 light
notes: as for B18
B41: GpH7-A5/GpH7-B3 variant S298_03V/GpL16-k0 (antibody, human IgG1, kappa)
heavy 1: not shown
heavy 2: not shown
light: B1 light
notes: as for B18
B42: GpH7-A5/GpH7-B3 variant S324_08L/GpL16-k0 (antibody, human IgG1, kappa)
heavy 1: not shown
heavy 2: not shown
light: B1 light
notes: as for B18
B43: GpH7-A5/GpH7-B3 variant Q295_13S/GpL16-k0 (antibody, human IgG1, kappa)
heavy 1: not shown
heavy 2: not shown
light: B1 light
notes: as for B18
B44: GpH7-A5/GpH7-B3 variant S324_03V/GpL16-k0 (antibody, human IgG1, kappa)
heavy 1: not shown
heavy 2: not shown
light: B1 light
notes: as for B18
B45: GpH7-A5/GpH7-B3 variant Q295_05P/GpL16-k0 (antibody, human IgG1, kappa)
heavy 1: not shown
heavy 2: not shown
light: B1 light
notes: as for B18
B46: GpH7-A5/GpH7-B3 variant S298_07I/GpL16-k0 (antibody, human IgG1, kappa)
heavy 1: not shown
heavy 2: not shown
light: B1 light
notes: as for B18

molecular target: T1, FcγRIIa H; assay: SPR (Biacore), antibody captured, FcγR analyte; binding relative to GpH7-A5/GpH7-B3/GpL16-k0 = 100

| Binder | He/Con_2aH |
| --- | --- |
| B1 | 81.8 % of control |
| B2 | 98.8 % of control |
| B3 | 92.7 % of control |
| B4 | 99.2 % of control |
| B5 | 59.5 % of control |
| B6 | 59.8 % of control |
| B7 | 95.8 % of control |
| B8 | 86.7 % of control |
| B9 | 97 % of control |
| B10 | 56.4 % of control |
| B11 | 97 % of control |
| B12 | 87.5 % of control |
| B13 | 77.1 % of control |
| B14 | 99.2 % of control |
| B15 | 45.9 % of control |
| B16 | 84.6 % of control |

molecular target: T2, FcγRIIb; assay: as above

| Binder | He/Con_2b |
| --- | --- |
| B17 | 24.6 % of control |
| B1 | 116 % of control |
| B2 | 126 % of control |
| B3 | 177 % of control |
| B4 | 114 % of control |
| B5 | 123 % of control |
| B6 | 218 % of control |
| B7 | 111 % of control |
| B8 | 103 % of control |
| B9 | 155 % of control |
| B10 | 110 % of control |
| B11 | 175 % of control |
| B12 | 221 % of control |
| B13 | 232 % of control |
| B14 | 144 % of control |
| B15 | 115 % of control |
| B16 | 204 % of control |

molecular target: T3, FcγRIa (human, UniProt P12314 16-292); assay: SPR (Biacore), captured antibody, FcγRIa analyte; relative to HeCon Ab GpH7-A5/GpH7-B3/GpL16-k0 = 100
T3 construct: extracellular domain; soluble extracellular domain with C-terminal His tag, expressed in FreeStyle293 cells; also called FcgRI; FcgRIa
T3 sequence (P12314 16-292): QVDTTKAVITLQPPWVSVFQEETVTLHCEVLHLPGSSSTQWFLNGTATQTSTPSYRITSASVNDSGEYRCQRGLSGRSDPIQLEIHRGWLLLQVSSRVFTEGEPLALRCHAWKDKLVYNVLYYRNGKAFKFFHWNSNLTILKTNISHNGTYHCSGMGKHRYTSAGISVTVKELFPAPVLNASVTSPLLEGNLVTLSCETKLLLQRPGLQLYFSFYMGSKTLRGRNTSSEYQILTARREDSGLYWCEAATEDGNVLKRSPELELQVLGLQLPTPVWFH

| Binder | He/Con_1a |
| --- | --- |
| B18 | 121 % of control |
| B19 | 107 % of control |
| B20 | 101 % of control |
| B21 | 109 % of control |
| B22 | 112 % of control |
| B23 | 114 % of control |
| B24 | 108 % of control |
| B25 | 101 % of control |
| B26 | 107 % of control |
| B27 | 103 % of control |
| B28 | 109 % of control |
| B29 | 108 % of control |
| B30 | 106 % of control |
| B31 | 103 % of control |
| B32 | 103 % of control |
| B33 | 109 % of control |
| B34 | 110 % of control |
| B35 | 106 % of control |
| B36 | 107 % of control |
| B37 | 103 % of control |
| B38 | 107 % of control |
| B39 | 107 % of control |
| B40 | 102 % of control |
| B41 | 110 % of control |
| B42 | 103 % of control |
| B43 | 102 % of control |
| B44 | 104 % of control |
| B45 | 103 % of control |
| B46 | 107 % of control |
